Key:
[1] = biological target: T1, Muc1 mucin bearing the CA6 sialoglycotope (DS6 antigen), as expressed by CA6-positive human tumour cell lines (human, UniProt P15941 24-1255, sialylated O-linked carbohydrate carrying the CA6 glycotope; sites not stated); experiment: flow cytometry on HeLa cells (FIG. 28), apparent Kd, probably pM
T1 construct: whole, on cells; It stood on whole cells in flow cytometry and in cell lysates in dot blots, immunoprecipitations and western blots; also called CA6 antigen; Muc1 mucin receptor

[2] = biological target: T1, Muc1 mucin bearing the CA6 …; experiment: cell-based or functional assay
[3] = biological target: T1, Muc1 mucin bearing the CA6 …; experiment: flow cytometry competition; competitor 2 nM biotin-muDS6, streptavidin-DTAF; called IC50 in the legend of FIG. 19
Method: In the first set of experiments direct binding to a CA6-expressing cell line, KB, was measured.

B1: murine anti-CA6 monoclonal antibody DS6 (antibody, mouse IgG1, V domains shown)
VH: QAYLQQSGAELVRSGASVKMSCKASGYTFTSYNMHWVKQTPGQGLEWIGYIYPGNGATNYNQKFKGKATLTADPSSSTAYMQISSLTSEDSAVYFCARGDSVPFAYWGQGTLVTVSA
VL: QIVLTQSPAIMSASPGEKVTITCSAHSSVSFMHWFQQKPGTSPKLWIYSTSSLASGVPARFGGSGSGTSYSLTISRMEAEDAATYYCQQRSSFPLTFGAGTKLELKR
notes: Whole murine monoclonal antibody from the hybridoma (ATCC PTA-4449); They were cloned with murine IgG1 and kappa primers; also called muDS6; the DS6 antibody
Kd [1]: 620000 nM
indirect cell viability assay on Caov-3 cells with anti-mouse IgG (H+L) DM1 conjugate, IC50 [2]: 425000 nM
EC50 [3]: 1.9 nM

B2: chimeric DS6 antibody (antibody, V domains shown)
VH: QAYLQQSGAELVRSGASVKMSCKASGYTFTSYNMHWVKQTPGQGLEWIGYIYPGNGATNYNQKFKGKATLTADPSSSTAYMQISSLTSEDSAVYFCARGDSVPFAYWGQGTLVTVSA
VL: QIVLTQSPAIMSASPGEKVTITCSAHSSVSFMHWFQQKPGTSPKLWIYSTSSLASGVPARFGGSGSGTSYSLTISRMEAEDAATYYCQQRSSFPLTFGAGTKLELKR
notes: Expressed in CHO cells; also called chDS6
EC50 [3]: 1.7 nM

B3: humanized DS6 antibody version 1.01 (antibody, V domains shown)
VH: QAQLVQSGAEVVKPGASVKMSCKASGYTFTSYNMHWVKQTPGQGLEWIGYIYPGNGATNYNQKFQGKATLTADTSSSTAYMQISSLTSEDSAVYFCARGDSVPFAYWGQGTLVTVSA
VL: EIVLTQSPATMSASPGERVTITCSAHSSVSFMHWFQQKPGTSPKLWIYSTSSLASGVPARFGGSGSGTSYSLTISSMEAEDAATYYCQQRSSFPLTFGAGTKLELKR
notes: also called huDS6v1.01; huDS6 v1.01
EC50 [3]: 3 nM

B4: humanized DS6 antibody version 1.21 (antibody, V domains shown)
VH: QAQLVQSGAEVVKPGASVKMSCKASGYTFTSYNMHWVKQTPGQGLEWIGYIYPGNGATNYNQKFQGKATLTADPSSSTAYMQISSLTSEDSAVYFCARGDSVPFAYWGQGTLVTVSA
VL: EIVLTQSPATMSASPGERVTITCSAHSSVSFMHWFQQKPGTSPKLWIYSTSSLASGVPARFGGSGSGTSYSLTISSMEAEDAATYYCQQRSSFPLTFGAGTKLELKR
notes: also called huDS6v1.21; huDS6 v1.21
EC50 [3]: 1.9 nM
